The numbers were not newly measured in publication PMC5419744, which cites them from elsewhere.

The data set addresses DNA polymerase III subunit tau (Escherichia coli) (UniProt P06710).
Chain of UniProt P06710 (P06710 2-643): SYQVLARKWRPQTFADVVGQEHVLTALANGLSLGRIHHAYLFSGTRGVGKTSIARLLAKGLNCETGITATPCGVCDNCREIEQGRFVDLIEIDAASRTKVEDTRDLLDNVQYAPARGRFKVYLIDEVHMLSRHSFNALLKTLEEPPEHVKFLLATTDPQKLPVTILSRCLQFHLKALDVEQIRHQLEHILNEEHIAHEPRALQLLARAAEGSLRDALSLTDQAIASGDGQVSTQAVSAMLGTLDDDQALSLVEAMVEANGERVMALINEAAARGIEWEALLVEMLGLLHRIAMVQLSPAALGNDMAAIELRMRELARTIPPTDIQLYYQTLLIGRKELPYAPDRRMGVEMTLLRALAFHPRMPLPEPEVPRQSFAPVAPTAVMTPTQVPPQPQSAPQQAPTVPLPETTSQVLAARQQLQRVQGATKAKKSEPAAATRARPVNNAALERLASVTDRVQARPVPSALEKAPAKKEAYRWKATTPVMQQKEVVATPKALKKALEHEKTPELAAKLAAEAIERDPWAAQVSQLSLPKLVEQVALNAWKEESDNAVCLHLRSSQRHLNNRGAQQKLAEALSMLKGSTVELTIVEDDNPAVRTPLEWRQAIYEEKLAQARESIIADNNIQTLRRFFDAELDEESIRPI

The Kd is the free concentration of one partner at which half of the binding sites on the other are occupied at equilibrium, for simple one-to-one binding. “DNA polymerase III subunit alpha (from UniProt P10443)”: the Kd is 0.3 nM.
